{"source": "paper doi:10.1101/2021.10.11.463801", "about": "“JIP3 regulates bi-directional organelle transport in neurons through its interaction with dynein and kinesin-1” (bioRxiv, 2021)", "binders": {"B1": {"name": "JIP3[1-108] (domain or fragment, human, UniProt Q9UPT6-1 1-108, looked up)", "chain": "MMEIQMDEGGGVVVYQDDYCSGSVMSERVSGLAGSIYREFERLIHCYDEEVVKELMPLVVNVLENLDSVLSENQEHEVELELLREDNEQLLTQYEREKALRRQAEEKF", "notes": "UniProt Q9UPT6-1; Dimer by AUC; also called JIP3-RH1; RH1 domain of JIP3; source: E. coli (BL21, BL21-CodonPlus-RIL or Rosetta), purified"}, "B2": {"name": "JIP3[1-108] V60Q (domain or fragment, human, UniProt Q9UPT6-1 1-108, looked up)", "chain": "MMEIQMDEGGGVVVYQDDYCSGSVMSERVSGLAGSIYREFERLIHCYDEEVVKELMPLVQNVLENLDSVLSENQEHEVELELLREDNEQLLTQYEREKALRRQAEEKF", "notes": "human JIP3, residues 1-108 (RH1 domain) with V60Q; UniProt Q9UPT6-1; Dimer by AUC; also called JIP3-RH1 V60Q; source: E. coli (BL21, BL21-CodonPlus-RIL or Rosetta), purified"}, "B3": {"name": "JIP4[1-103] (domain or fragment, human, UniProt O60271-1 1-103, looked up)", "chain": "MELEDGVVYQEEPGGSGAVMSERVSGLAGSIYREFERLIGRYDEEVVKELMPLVVAVLENLDSVFAQDQEHQVELELLRDDNEQLITQYEREKALRKHAEEKF", "notes": "human JIP4, residues 1-103 (RH1 domain); UniProt O60271-1; Dimer by AUC; also called JIP4-RH1; RH1 domain of JIP4; source: E. coli (BL21, BL21-CodonPlus-RIL or Rosetta), purified"}, "B4": {"name": "GST-tagged KLC1[185-501] (domain or fragment, human, UniProt Q07866-1 185-501, looked up)", "chain": "DDPGQGIQQQHSSAAAAAQQGGYEIPARLRTLHNLVIQYASQGRYEVAVPLCKQALEDLEKTSGHDHPDVATMLNILALVYRDQNKYKDAANLLNDALAIREKTLGKDHPAVAATLNNLAVLYGKRGKYKEAEPLCKRALEIREKVLGKDHPDVAKQLNNLALLCQNQGKYEEVEYYYQRALEIYQTKLGPDDPNVAKTKNNLASCYLKQGKFKQAETLYKEILTRAHEREFGSVDDENKPIWMHAEEREECKGKQKDGTSFGEYGGWYKACKVDSPTVTTTLKNLGALYRRQGKFEAAETLEEAAMRSRKQGLDNV", "notes": "human kinesin light chain 1 (KLC1), residues 185-501 (TPR domain); UniProt Q07866-1; also called KLC1 fragment; KLC1 TPR domain; source: E. coli (BL21, BL21-CodonPlus-RIL or Rosetta), purified; not shown: GST, N-terminal, kept"}}, "key": {"[1]": {"molecular_target": "the molecule itself", "assay": "AUC; sedimentation velocity, 42'000 rpm, 20 °C; 50 mM HEPES, 100 mM NaCl, 0.5 mM TCEP, pH 7.5; c(S) by SEDFIT"}, "[2]": {"molecular_target": "T1, mouse JIP3[186-505] (mouse, UniProt Q9ESN9-5 186-505)", "T1 construct": "mouse JIP3, residues 186-505 (holds the leucine zipper); numbers count on UniProt Q9ESN9-5; also called JIP3[186-505] wild type; source: E. coli (BL21, BL21-CodonPlus-RIL or Rosetta), purified", "T1 sequence (looked up)": "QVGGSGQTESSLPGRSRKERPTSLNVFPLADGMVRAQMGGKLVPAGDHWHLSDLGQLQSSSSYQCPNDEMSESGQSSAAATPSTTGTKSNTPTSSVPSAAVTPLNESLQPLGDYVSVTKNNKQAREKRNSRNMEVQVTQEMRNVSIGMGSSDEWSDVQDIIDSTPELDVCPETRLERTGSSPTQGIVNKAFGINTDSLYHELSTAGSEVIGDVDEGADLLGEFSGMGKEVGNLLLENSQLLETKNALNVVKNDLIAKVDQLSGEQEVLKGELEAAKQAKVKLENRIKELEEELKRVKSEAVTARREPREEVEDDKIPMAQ", "assay": "pull-down; GST-tagged bait on glutathione agarose resin; purified recombinant proteins mixed in 50 mM HEPES, 100 mM NaCl, 5 mM DTT, pH 7.5; 1 h at 4 °C; eluted with 15 mM reduced L-glutathione; SDS-PAGE with Coomassie Blue or immunoblot", "conditions": "both partners purified"}}}
{"binder": "B1", "values": [{"measurement": "stoichiometry N", "setting": "[1]", "result": 2}]}
{"binder": "B2", "values": [{"measurement": "stoichiometry N", "setting": "[1]", "result": 2}]}
{"binder": "B3", "values": [{"measurement": "stoichiometry N", "setting": "[1]", "result": 2}]}
{"binder": "B4", "values": [{"measurement": "binding result", "setting": "[2]", "result": "binds"}]}
